These results are taken from patent US20250282881A1 (SHANGHAI EPIMAB BIOTHERAPEUTICS, published 2025).

For assay [1], the target named is T1, recombinant human OX40/His fusion protein (Novoprotein, CB17) (human, UniProt P43489 29-216).
T1 construct: Bought protein
T1 sequence: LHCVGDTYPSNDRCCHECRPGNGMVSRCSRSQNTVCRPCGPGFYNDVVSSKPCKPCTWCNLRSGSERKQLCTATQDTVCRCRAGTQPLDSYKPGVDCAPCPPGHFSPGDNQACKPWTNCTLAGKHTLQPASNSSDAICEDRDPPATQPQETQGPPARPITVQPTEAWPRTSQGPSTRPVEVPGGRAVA
The assay can be described thus: BLI (Octet RED96), antibody on AHC sensor, OX40/His as analyte, test group 4. On the procedure: All 17 antibodies in Table 4 were expressed by transient transfection of HEK293 cell, purified by Protein A chromatography, and assayed for and ranked by dissociation rate constant (koff). Briefly, antibodies binding affinities and kinetics were characterized by Octet® RED96 biolayer interferometry (Pall FortéBio LLC). Antibodies were captured by Anti-hIgG Fc Capture (AHC) Biosensors (Pall) at a concentration of 100 nM for 120 seconds. After that, sensors were dipped into running buffer (1× pH 7.2 PBS, 0.05% Tween 20, 0.1% BSA) for 60 seconds to check the baseline, then dipped into recombinant human OX40/His fusion protein (Novoprotein, CB17) at assigned concentration for 200 seconds to measure binding, followed by dipped into running buffer for 600 seconds for dissociation. The assay was conducted in four test groups (as listed in Table 5) all containing the EM1007-044c chimeric antibody as the basis for normalization. The association and dissociation curves were fitted to a 1:1 Langmuir binding model using ForteBio Data Analysis software (Pall) to obtain the off-rate constants as shown in Table 5 below. The off-rate of each antibody was compared to that of the EM1007-mAb044c chimeric antibody in the same test group obtained in parallel to produce the corresponding off-rate ratio, serving as a normalized index. […]

Assay [2] addresses T2, human OX40 on cells (CHO-K1-hOX40, CHO-OX40, Jurkat-OX40 reporter cells) (human, UniProt P43489 29-277).
T2 construct: also called human OX40-transfected CHO cell; CD134
T2 sequence: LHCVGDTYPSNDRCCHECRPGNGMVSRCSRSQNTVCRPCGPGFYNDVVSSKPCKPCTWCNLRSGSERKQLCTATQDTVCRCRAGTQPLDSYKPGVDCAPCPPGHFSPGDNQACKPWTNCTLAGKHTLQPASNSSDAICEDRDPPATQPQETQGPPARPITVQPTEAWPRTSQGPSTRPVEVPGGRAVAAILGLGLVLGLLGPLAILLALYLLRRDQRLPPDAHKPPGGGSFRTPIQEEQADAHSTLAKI
Description: FACS on human OX40 transfected CHO cells. The protocol: Cell binding affinity of PD-L1/OX40 antibodies were measured against CHO (ATCC, #CCL-61) overexpressing human PD-L1 (CHO-PD-L1) and CHO overexpressing OX40 (CHO-OX40), respectively. Briefly, 5×10⁵ cells were seeded into each well of a 96-well plate (Corning, #3799). Cells were centrifuged at 400 g for 5 minutes and supernatants were discarded. For each well, 100 μl of 3× serial dilution of antibodies starting from 100 nM were then added and mixed with the cells. After 60 minutes of 4° C. incubation, plates were washed several times to remove excess antibodies. […] After another round of centrifugation and washing, cells were resuspended in FACS buffer for reading on a CytoFLEX Flow Cytometer (Beckman Coulter). Median Fluorescence Intensity (MFI) readouts were plotted against antibody concentration and analyzed with GraphPad Prism 8.0.

In assay [3] the target is T3, ΔCRD1-3 (human, UniProt P43489).
T3 construct: extracellular domain without CRD1, CRD2 and CRD3 (CRD4 left); also called truncated OX40 variant lacking CRD1, CRD2 and CRD3
T3 sequence (truncated extracellular domain, looked up): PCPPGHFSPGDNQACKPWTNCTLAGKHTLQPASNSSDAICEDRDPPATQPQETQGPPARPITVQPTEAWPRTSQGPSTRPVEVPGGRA
The assay can be described thus: ELISA, OX40 variant coated at 1 µg/ml, HRP-labeled secondary antibody, OD 450 nm. An excerpt: The 4 cysteine rich domains (CRD) from OX40 extracellular domain were identified from UniProt (Identifier: P43489), and full length of extracellular OX40 (CRD1-4) and truncated OX40 variants ΔCRD1 (lacking CRD1), ΔCRD1-2 (lacking CRD1 and CRD2), ΔCRD1-3 (lacking CRD1, CRD2 and CRD3), mCRD1 (CRD1-4 with CRD1 domain therein replaced by murine CRD1), mCRD2 (CRD1-4 with CRD2 domain therein replaced by murine CRD2), mCRD3 (CRD1-4 with CRD3 domain therein replaced by murine CRD3), and mCRD4 (CRD1-4 with CRD4 domain therein replaced by murine CRD4) were synthesized by Biointron. The binding of HuEM1007-044-16, OX40-Tab1 (WO2015153513), OX40-Tab2 (WO2020151761) to OX40 or OX40 truncated proteins were analyzed using ELISA to identify the pertinent binding epitope. Briefly, OX40 variants were each coated at 1 μg/ml onto a 96 well plate (Corning, #3361) which was incubated overnight at 4° C., washed with PBS containing 0.05% Tween 20, blocked with blocking buffer (PBS containing 0.05% Tween 20 and 2% BSA) at 37° C. for 2 hours. On the coated and blocked plate, serially diluted antibodies were added and incubated at 37° C. for 1 hour, washed for 3 times, then added HRP-labeled secondary antibody. Tetramethylbenzidine (TMB) chromogenic solution was added for color development for 5 minutes then the reaction was quench with 1M HCl. Absorbance at 450 nm (OD450) was measured on a microplate reader.
(An ELISA detects its analyte on a solid surface through an enzyme-linked reagent.)

B1: HuEM1007-044-16 (antibody, human IgG1, kappa, L234A L235A, V domains shown)
VH: EVQLQQSGAEVKKPGSSVKVSCKASGHAFSSSWMNWVKQRPGKGLEWIGRIYPGDEITNYNAKFKDKATLTADKSTSTAYMELSSLRSEDTAVYYCARDLLMPYWGQGTLVTVSS
VL: DIVMTQTPLSLPVTPGEPASISCRSSKSLLYSNAITYLYWYLQKPGQSPQLLIYQMSNLAPGVPDRFSSSGSGTDFTLKISRVEAEDVGVYYCAQNLELPFTFGQGTKLEIKR
notes: Humanized anti-OX40, human IgG1 LALA / kappa; parental antibody of FIT1014-20a; also called HuEM1007-44-16; parental OX40 antibody
By koff is commonly meant the first-order rate constant of dissociation. As usually defined, the EC50 is the concentration at which the effect is half-maximal. A low value points to an effect from little substance. B1: in assay [1], the “Normalized Index (off-rate ratio to EM1007-mAb044c)” value turned out to be 126% and the koff turned out to be 0.000352 s⁻¹. Also, the EC50 in assay [2] was 1.8 nM. The binding result in assay [3] is reported as “no binding (tested: about 25 nM)”.
